Reference: patent publication US20150111251A1 (AbbVie / Abbott, published 2015)
Residue numbers refer to the chain shown, from its start.

B1: AB353 (antibody, V domains shown)
VH: EVQLVQSGSELKKPGASVKVSCKASGYTFTNYGMNWVRQAPGQGLEWMGWINTYTGEPTYADDFKGRFVFSLDTSVSTAYLQISSLKAEDTAVYYCARKFLTTVVVTDYAMDYWGQGTTVTVSS
VL: DIQMTQSPSSLSASVGDRVTITCRASQDISNYLNWYQQKPGKAPKLLIYYTSRLQSGVPSRFSGSGSGTDYTLTISSLQPEDFATYYCQQGNTLPPTFGQGTKLEIK
notes: Full-length humanized antibody made in HEK 293-6E; also called hMAK199VH.1/hMAK199VL.1b
B2: AB366 (antibody, V domains shown)
VH: B1 VH with Y95F
VL: DVVMTQSPAFLSVTPGEKVTITCRASQDISNYLNWYQQKPDQAPKLLIKYTSRLQSGVPSRFSGSGSGTDFTFTISSLEAEDAATYYCQQGNTLPPTFGQGTKLEIK
notes: Full-length humanized antibody made in HEK 293-6E; also called hMAK199VH.1b/hMAK199VL.2
B3: AB359 (antibody, V domains shown)
VH: B1 VH with V2I, Y95F
VL: B1 VL
notes: Full-length humanized antibody made in HEK 293-6E; also called hMAK199VH.1a/hMAK199VL.1b
B4: AB357 (antibody, V domains shown)
VH: B1 VH with V2I, Y95F
VL: B1 VL with Y71F
notes: Full-length humanized antibody made in HEK 293-6E; also called hMAK199VH.1a/hMAK199VL.1
B5: AB360 (antibody, V domains shown)
VH: B1 VH with V2I, Y95F
VL: B2 VL
notes: Full-length humanized antibody made in HEK 293-6E; also called hMAK199VH.1a/hMAK199VL.2
B6: AB351 (antibody, V domains shown)
VH: B1 VH
VL: B1 VL with Y71F
notes: Full-length humanized antibody made in HEK 293-6E; also called hMAK199VH.1/hMAK199VL.1
B7: AB352 (antibody, V domains shown)
VH: B1 VH
VL: B1 VL with A43T, P44V, Y87F
notes: Full-length humanized antibody made in HEK 293-6E; also called hMAK199VH.1/hMAK199VL.1a
B8: AB354 (antibody, V domains shown)
VH: B1 VH
VL: B2 VL
notes: Full-length humanized antibody made in HEK 293-6E; also called hMAK199VH.1/hMAK199VL.2
B9: AB358 (antibody, V domains shown)
VH: B1 VH with V2I, Y95F
VL: B1 VL with A43T, P44V, Y87F
notes: Full-length humanized antibody made in HEK 293-6E; also called hMAK199VH.1a/hMAK199VL.1a
B10: AB384 (antibody, V domains shown)
VH: EIQLVQSGAEVKKPGASVKVSCKASGYTFTNYGMNWVRQAPGQGLEWMGWINTYTGEPTYADDFKGRVTFTTDTSTSTAYMELSSLRSEDTAVYYCARKFLTTVVVTDYAMDYWGQGTTVTVSS
VL: B2 VL
notes: Full-length humanized antibody made in HEK 293-6E; also called hMAK199VH.2b/hMAK199VL.2
B11: AB378 (antibody, V domains shown)
VH: B10 VH with V68F, T72L, Y95F
VL: B2 VL
notes: Full-length humanized antibody made in HEK 293-6E; also called hMAK199VH.2a/hMAK199VL.2
B12: AB372 (antibody, V domains shown)
VH: B10 VH with I2V, F70M
VL: B2 VL
notes: Full-length humanized antibody made in HEK 293-6E; also called hMAK199VH.2/hMAK199VL.2

The binders below were run against T1, Recombinant Human TNF-α/TNFSF1A (human, UniProt P01375 77-233) (assay: SPR (BIACORE), antibody captured, TNFα in solution).
T1 construct: also called hTNF-α; huTNFα
T1 sequence (P01375 77-233 limits assumed): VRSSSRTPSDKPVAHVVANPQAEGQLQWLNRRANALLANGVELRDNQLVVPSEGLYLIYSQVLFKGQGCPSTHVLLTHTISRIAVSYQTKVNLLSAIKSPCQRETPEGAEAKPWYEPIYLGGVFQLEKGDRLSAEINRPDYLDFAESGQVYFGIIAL
Description: The BIACORE assay (Biacore, Inc, Piscataway, N.J.) determines the affinity of antibodies with kinetic measurements of on-rate and off-rate constants. Binding of antibodies to a target antigen (for example, a purified recombinant target antigen) is determined by surface plasmon resonance-based measurements with a Biacore® 1000 or 3000 instrument (Biacore® AB, Uppsala, Sweden) using running HBS-EP (10 mM HEPES [pH 7.4], 150 mM NaCl, 3 mM EDTA, and 0.005% surfactant P20) at 25° C. All chemicals are obtained from Biacore® AB (Uppsala, Sweden) or otherwise from a different source as described. For example, approximately 5000 RU of goat anti-mouse IgG, (Fcγ), fragment specific polyclonal antibody (Pierce Biotechnology Inc, Rockford, Ill.) diluted in 10 mM sodium acetate (pH 4.5) is directly immobilized across a CM5 research grade biosensor chip using a standard amine coupling kit according to manufacturer's instructions and procedures at 25 μg/ml. Unreacted moieties on the biosensor surface are blocked with ethanolamine. Modified carboxymethyl dextran surface in flowcell 2 and 4 is used as a reaction surface. Unmodified carboxymethyl dextran without goat anti-mouse IgG in flow cell 1 and 3 is used as the reference surface. For kinetic analysis, rate equations derived from the 1:1 Langmuir binding model are fitted simultaneously to association and dissociation phases of all eight injections (using global fit analysis) with the use of Biaevaluation 4.0.1 software. Purified antibodies are diluted in HEPES-buffered saline for capture across goat anti-mouse IgG specific reaction surfaces. Antibodies to be captured as a ligand (25 μg/ml) are injected over reaction matrices at a flow rate of 5 μl/minute. The association and dissociation rate constants, kₒₙ (M⁻¹ s⁻¹) and koff (s⁻¹), are determined under a continuous flow rate of 25 μl/minute. Rate constants are derived by making kinetic binding measurements at different antigen concentrations ranging from 10-200 nM. The equilibrium dissociation constant (M) of the reaction between antibodies and the target antigen is then calculated from the kinetic rate constants by the following formula: KD=koff/kₒₙ. Binding is recorded as a function of time and kinetic rate constants are calculated. In this assay, on-rates as fast as 10⁶ M⁻¹ s⁻¹ and off-rates as slow as 10⁻⁶ s⁻¹ can be measured.

First: B1
Second: B2
The Kd of the first is 2-fold lower: 0.46 nM for the first, 0.93 nM for the second. The first binds more tightly here.

B3 and B4 are within 1.5-fold of each other in Kd: 0.73 nM for the first, 0.67 nM for the second.

Compared with B5, B7 is 1.7-fold lower in Kd: 0.78 nM for the first, 0.45 nM for the second.

B8 and B9 are within 1.5-fold of each other in Kd: 0.52 nM for the first, 0.7 nM for the second.

Going from B10 to B11, the Kd falls from 2.1 nM to 1.4 nM (1.5-fold). The second binds more tightly here.

B12 gave a Kd of 1.2 nM.

Compared with B1, B2 is 1.6-fold higher in koff: 0.00092 s⁻¹ for the first, 0.0015 s⁻¹ for the second.

B3 and B4 are within 1.5-fold of each other in koff: 0.00093 s⁻¹ for the first, 0.0013 s⁻¹ for the second.

B5 and B6 are within 1.5-fold of each other in koff: 0.00097 s⁻¹ for the first, 0.00068 s⁻¹ for the second.

B7 and B8 are within 1.5-fold of each other in koff: 0.00094 s⁻¹ for the first, 0.001 s⁻¹ for the second.

B9 and B10 are within 1.5-fold of each other in koff: 0.00097 s⁻¹ for the first, 0.0014 s⁻¹ for the second.

B11 and B12 are within 1.5-fold of each other in koff: 0.0013 s⁻¹ for the first, 0.0011 s⁻¹ for the second.

B1 and B2 are within 1.5-fold of each other in kon: 2e+06 M⁻¹ s⁻¹ for the first, 1.6e+06 M⁻¹ s⁻¹ for the second.

B3 and B4 are within 1.5-fold of each other in kon: 1.3e+06 M⁻¹ s⁻¹ for the first, 1.9e+06 M⁻¹ s⁻¹ for the second.

Compared with B5, B6 is 1.7-fold higher in kon: 1.2e+06 M⁻¹ s⁻¹ for the first, 2e+06 M⁻¹ s⁻¹ for the second.

B7 and B8 are within 1.5-fold of each other in kon: 2.1e+06 M⁻¹ s⁻¹ for the first, 2e+06 M⁻¹ s⁻¹ for the second.

First: B9
Second: B10
The kon of the first is 2.1-fold higher: 1.4e+06 M⁻¹ s⁻¹ for the first, 660000 M⁻¹ s⁻¹ for the second.

B11 and B12 are within 1.5-fold of each other in kon: 880000 M⁻¹ s⁻¹ for the first, 950000 M⁻¹ s⁻¹ for the second.

These binders were tested against T1, Recombinant Human TNF-α/TNFSF1A (assay: cell-based or functional assay).

First: B1
Second: B3
The “TNFα Neutralization Assay IC50 nM (L929 cells)” value of the first is 5.7-fold lower: 0.66 nM for the first, 3.78 nM for the second.

Going from B4 to B6, the “TNFα Neutralization Assay IC50 nM (L929 cells)” value falls from 1.94 nM to 1.06 nM (1.8-fold).

Compared with B7, B9 is 1.7-fold lower in “TNFα Neutralization Assay IC50 nM (L929 cells)” value: 0.35 nM for the first, 0.21 nM for the second.
